Starred links: 1 amine or outer side, 2 acyl side, 3 side chain; linkers in the order of their positions; H or OH if unused. Non-standard residues stand in square brackets, D forms with d. Groups on a side chain read outwards from the residue. Primed or numbered codes have the meaning given here. No end group written: not given here. *: point of attachment. γGlu = O=C(O)[C@H](CCC(=O)[*:2])N[*:1]; Stearoyl = CCCCCCCCCCCCCCCCCC(=O)*; αMeF = C[C@](N)(Cc1ccccc1)C(=O)O; αMeK = C[C@](N)(CCCCN)C(=O)O; Lauroyl = CCCCCCCCCCCC(=O)*; αMeS = C[C@](N)(CO)C(=O)O; PEG2′ = not defined here; Aib = CC(C)(N)C(=O)O; Ahx = NCCCCCC(=O)O
B1: SEQ ID NO 165 (peptide)
peptide: H[Aib]EGS[αMeF]TSDV[αMeS]S[αMeF]LEGEAA[αMeK]E[αMeF]IA[αMeF]VVK([γGlu-γGlu-Lauroyl])GG-NH2
modifications: N-terminus assumed
SMILES: CCCCCCCCCCCC(=O)N[C@@H](CCC(=O)N[C@@H](CCC(=O)NCCCC[C@H](NC(=O)[C@@H](NC(=O)[C@@H](NC(=O)[C@](C)(Cc1ccccc1)NC(=O)[C@H](C)NC(=O)[C@@H](NC(=O)[C@](C)(Cc1ccccc1)NC(=O)[C@H](CCC(=O)O)NC(=O)[C@](C)(CCCCN)NC(=O)[C@H](C)NC(=O)[C@H](C)NC(=O)[C@H](CCC(=O)O)NC(=O)CNC(=O)[C@H](CCC(=O)O)NC(=O)[C@H](CC(C)C)NC(=O)[C@](C)(Cc1ccccc1)NC(=O)[C@H](CO)NC(=O)[C@](C)(CO)NC(=O)[C@@H](NC(=O)[C@H](CC(=O)O)NC(=O)[C@H](CO)NC(=O)[C@@H](NC(=O)[C@](C)(Cc1ccccc1)NC(=O)[C@H](CO)NC(=O)CNC(=O)[C@H](CCC(=O)O)NC(=O)C(C)(C)NC(=O)[C@@H](N)Cc1c[nH]cn1)[C@@H](C)O)C(C)C)[C@@H](C)CC)C(C)C)C(C)C)C(=O)NCC(=O)NCC(N)=O)C(=O)O)C(=O)O
B2: SEQ ID NO 166 (peptide)
peptide: H[Aib]EGS[αMeF]TSDV[αMeS]S[αMeF]LEGEAA[αMeK]E[αMeF]IA[αMeF]VVK([γGlu-γGlu-γGlu-Lauroyl])GG-NH2
modifications: N-terminus assumed
SMILES: CCCCCCCCCCCC(=O)N[C@@H](CCC(=O)N[C@@H](CCC(=O)N[C@@H](CCC(=O)NCCCC[C@H](NC(=O)[C@@H](NC(=O)[C@@H](NC(=O)[C@](C)(Cc1ccccc1)NC(=O)[C@H](C)NC(=O)[C@@H](NC(=O)[C@](C)(Cc1ccccc1)NC(=O)[C@H](CCC(=O)O)NC(=O)[C@](C)(CCCCN)NC(=O)[C@H](C)NC(=O)[C@H](C)NC(=O)[C@H](CCC(=O)O)NC(=O)CNC(=O)[C@H](CCC(=O)O)NC(=O)[C@H](CC(C)C)NC(=O)[C@](C)(Cc1ccccc1)NC(=O)[C@H](CO)NC(=O)[C@](C)(CO)NC(=O)[C@@H](NC(=O)[C@H](CC(=O)O)NC(=O)[C@H](CO)NC(=O)[C@@H](NC(=O)[C@](C)(Cc1ccccc1)NC(=O)[C@H](CO)NC(=O)CNC(=O)[C@H](CCC(=O)O)NC(=O)C(C)(C)NC(=O)[C@@H](N)Cc1c[nH]cn1)[C@@H](C)O)C(C)C)[C@@H](C)CC)C(C)C)C(C)C)C(=O)NCC(=O)NCC(N)=O)C(=O)O)C(=O)O)C(=O)O
B3: SEQ ID NO 160 (peptide)
peptide: H[Aib]EGS[αMeF]TSDV[αMeS]S[αMeF]LEGEAAK([Ahx-Ahx-Ahx-Stearoyl])E[αMeF]IA[αMeF]VV[αMeK]GG-NH2
modifications: N-terminus assumed
SMILES: CCCCCCCCCCCCCCCCCC(=O)NCCCCCC(=O)NCCCCCC(=O)NCCCCCC(=O)NCCCC[C@H](NC(=O)[C@H](C)NC(=O)[C@H](C)NC(=O)[C@H](CCC(=O)O)NC(=O)CNC(=O)[C@H](CCC(=O)O)NC(=O)[C@H](CC(C)C)NC(=O)[C@](C)(Cc1ccccc1)NC(=O)[C@H](CO)NC(=O)[C@](C)(CO)NC(=O)[C@@H](NC(=O)[C@H](CC(=O)O)NC(=O)[C@H](CO)NC(=O)[C@@H](NC(=O)[C@](C)(Cc1ccccc1)NC(=O)[C@H](CO)NC(=O)CNC(=O)[C@H](CCC(=O)O)NC(=O)C(C)(C)NC(=O)[C@@H](N)Cc1c[nH]cn1)[C@@H](C)O)C(C)C)C(=O)N[C@@H](CCC(=O)O)C(=O)N[C@@](C)(Cc1ccccc1)C(=O)N[C@H](C(=O)N[C@@H](C)C(=O)N[C@@](C)(Cc1ccccc1)C(=O)N[C@H](C(=O)N[C@H](C(=O)N[C@@](C)(CCCCN)C(=O)NCC(=O)NCC(N)=O)C(C)C)C(C)C)[C@@H](C)CC
B4: SEQ ID NO 167 (peptide)
peptide: H[Aib]EGS[αMeF]TSDV[αMeS]S[αMeF]LEGEAA[αMeK]E[αMeF]IA[αMeF]VVK([Ahx-Lauroyl])GG-NH2
modifications: N-terminus assumed
SMILES: CCCCCCCCCCCC(=O)NCCCCCC(=O)NCCCC[C@H](NC(=O)[C@@H](NC(=O)[C@@H](NC(=O)[C@](C)(Cc1ccccc1)NC(=O)[C@H](C)NC(=O)[C@@H](NC(=O)[C@](C)(Cc1ccccc1)NC(=O)[C@H](CCC(=O)O)NC(=O)[C@](C)(CCCCN)NC(=O)[C@H](C)NC(=O)[C@H](C)NC(=O)[C@H](CCC(=O)O)NC(=O)CNC(=O)[C@H](CCC(=O)O)NC(=O)[C@H](CC(C)C)NC(=O)[C@](C)(Cc1ccccc1)NC(=O)[C@H](CO)NC(=O)[C@](C)(CO)NC(=O)[C@@H](NC(=O)[C@H](CC(=O)O)NC(=O)[C@H](CO)NC(=O)[C@@H](NC(=O)[C@](C)(Cc1ccccc1)NC(=O)[C@H](CO)NC(=O)CNC(=O)[C@H](CCC(=O)O)NC(=O)C(C)(C)NC(=O)[C@@H](N)Cc1c[nH]cn1)[C@@H](C)O)C(C)C)[C@@H](C)CC)C(C)C)C(C)C)C(=O)NCC(=O)NCC(N)=O
B5: SEQ ID NO 164 (peptide)
peptide: H[Aib]EGS[αMeF]TSDV[αMeS]S[αMeF]LEGEAA[αMeK]E[αMeF]IA[αMeF]VVK([γGlu-Lauroyl])GG-NH2
modifications: N-terminus assumed
SMILES: CCCCCCCCCCCC(=O)N[C@@H](CCC(=O)NCCCC[C@H](NC(=O)[C@@H](NC(=O)[C@@H](NC(=O)[C@](C)(Cc1ccccc1)NC(=O)[C@H](C)NC(=O)[C@@H](NC(=O)[C@](C)(Cc1ccccc1)NC(=O)[C@H](CCC(=O)O)NC(=O)[C@](C)(CCCCN)NC(=O)[C@H](C)NC(=O)[C@H](C)NC(=O)[C@H](CCC(=O)O)NC(=O)CNC(=O)[C@H](CCC(=O)O)NC(=O)[C@H](CC(C)C)NC(=O)[C@](C)(Cc1ccccc1)NC(=O)[C@H](CO)NC(=O)[C@](C)(CO)NC(=O)[C@@H](NC(=O)[C@H](CC(=O)O)NC(=O)[C@H](CO)NC(=O)[C@@H](NC(=O)[C@](C)(Cc1ccccc1)NC(=O)[C@H](CO)NC(=O)CNC(=O)[C@H](CCC(=O)O)NC(=O)C(C)(C)NC(=O)[C@@H](N)Cc1c[nH]cn1)[C@@H](C)O)C(C)C)[C@@H](C)CC)C(C)C)C(C)C)C(=O)NCC(=O)NCC(N)=O)C(=O)O

The binders below were run against glucagon receptor (GCGR) (human, UniProt P47871 26-477) (assay: cell-based or functional assay).
Chain of glucagon receptor (GCGR) (P47871 26-477): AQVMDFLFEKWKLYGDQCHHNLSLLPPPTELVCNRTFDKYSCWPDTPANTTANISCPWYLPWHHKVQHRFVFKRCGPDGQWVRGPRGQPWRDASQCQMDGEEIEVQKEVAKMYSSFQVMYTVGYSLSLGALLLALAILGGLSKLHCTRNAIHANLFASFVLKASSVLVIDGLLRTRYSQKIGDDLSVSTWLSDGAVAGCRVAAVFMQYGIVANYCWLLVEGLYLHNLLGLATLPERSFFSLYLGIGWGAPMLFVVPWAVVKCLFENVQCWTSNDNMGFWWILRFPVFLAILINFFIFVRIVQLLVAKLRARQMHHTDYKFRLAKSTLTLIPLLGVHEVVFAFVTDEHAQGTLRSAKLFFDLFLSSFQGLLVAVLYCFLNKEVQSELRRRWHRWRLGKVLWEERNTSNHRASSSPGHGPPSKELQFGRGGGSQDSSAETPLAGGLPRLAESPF

Binder | Primary assay EC50 (cAMP), Gluc-R, first run | Primary assay EC50 (cAMP), Gluc-R, second run
B1 | 27 nM | 27 nM
H[Aib]EGS[αMeF]TSDV[αMeS]S[αMeF]LEGEAAK([PEG2′-Stearoyl])E[αMeF]IA[αMeF]VV[αMeK]GG-NH2 [SEQ ID NO 161] | 27 nM | 27 nM
B2 | 26 nM | 26 nM
H[Aib]EGS[αMeF]TSDV[αMeS]S[αMeF]LEGEAAK([PEG2′-PEG2′-Stearoyl])E[αMeF]IA[αMeF]VV[αMeK]GG-NH2 [SEQ ID NO 162] | 26 nM | 26 nM
B3 | 26 nM | 26 nM
B4 | 29 nM | 29 nM
B5 | 28 nM | 28 nM
H[Aib]EGS[αMeF]TSDV[αMeS]S[αMeF]LEGEAAK([PEG2′-PEG2′-PEG2′-Stearoyl])E[αMeF]IA[αMeF]VV[αMeK]GG-NH2 [SEQ ID NO 163] | 25 nM | 25 nM

These binders were tested against T1, glucose-dependent insulinotropic peptide (gastric inhibitory polypeptide) receptor (GIPR) (human, UniProt P48546 22-466) (assay: cell-based or functional assay).
T1 sequence (looked up): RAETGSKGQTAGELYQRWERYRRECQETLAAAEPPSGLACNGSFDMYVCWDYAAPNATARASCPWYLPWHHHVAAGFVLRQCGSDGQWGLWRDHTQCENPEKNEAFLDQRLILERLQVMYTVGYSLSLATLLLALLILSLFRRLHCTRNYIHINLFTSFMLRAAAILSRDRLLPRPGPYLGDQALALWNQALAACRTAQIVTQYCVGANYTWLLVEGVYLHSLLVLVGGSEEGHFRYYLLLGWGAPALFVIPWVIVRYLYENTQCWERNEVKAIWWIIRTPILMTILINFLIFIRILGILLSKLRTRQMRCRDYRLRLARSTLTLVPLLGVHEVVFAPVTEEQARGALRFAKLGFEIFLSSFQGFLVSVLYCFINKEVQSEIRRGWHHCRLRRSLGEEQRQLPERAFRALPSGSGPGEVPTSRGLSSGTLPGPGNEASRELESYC

Binder | Primary assay EC50 (cAMP), GIP-R, first run | Primary assay EC50 (cAMP), GIP-R, second run
B1 | 27 nM | 27 nM
H[Aib]EGS[αMeF]TSDV[αMeS]S[αMeF]LEGEAAK([PEG2′-Stearoyl])E[αMeF]IA[αMeF]VV[αMeK]GG-NH2 [SEQ ID NO 161] | 27 nM | 27 nM
B2 | 26 nM | 26 nM
H[Aib]EGS[αMeF]TSDV[αMeS]S[αMeF]LEGEAAK([PEG2′-PEG2′-Stearoyl])E[αMeF]IA[αMeF]VV[αMeK]GG-NH2 [SEQ ID NO 162] | 26 nM | 26 nM
B3 | 26 nM | 26 nM
B4 | 29 nM | 29 nM
B5 | 28 nM | 28 nM
H[Aib]EGS[αMeF]TSDV[αMeS]S[αMeF]LEGEAAK([PEG2′-PEG2′-PEG2′-Stearoyl])E[αMeF]IA[αMeF]VV[αMeK]GG-NH2 [SEQ ID NO 163] | 25 nM | 25 nM

What follows are binders tested against GLP-1 receptor (GLP-1R) (human, UniProt P43220 24-463) (assay: cell-based or functional assay).

Binder | Primary assay EC50 (cAMP), GLP-1R n1 | Primary assay EC50 (cAMP), GLP-1R n2 | Primary assay EC50 (cAMP), Mean pM GLP-1R
B1 | 0.014 nM | 0.006 nM | 10.2 pM
H[Aib]EGS[αMeF]TSDV[αMeS]S[αMeF]LEGEAAK([PEG2′-Stearoyl])E[αMeF]IA[αMeF]VV[αMeK]GG-NH2 [SEQ ID NO 161] | 0.16 nM | 0.062 nM | 112 pM
B2 | 0.0072 nM | 0.0027 nM | 4.9 pM
H[Aib]EGS[αMeF]TSDV[αMeS]S[αMeF]LEGEAAK([PEG2′-PEG2′-Stearoyl])E[αMeF]IA[αMeF]VV[αMeK]GG-NH2 [SEQ ID NO 162] | 0.053 nM | 0.055 nM | 54 pM
B3 | 0.39 nM | 0.32 nM | 350 pM
B4 | 0.013 nM | 0.0069 nM | 10 pM
B5 | 0.022 nM | 0.0078 nM | 14.6 pM
H[Aib]EGS[αMeF]TSDV[αMeS]S[αMeF]LEGEAAK([PEG2′-PEG2′-PEG2′-Stearoyl])E[αMeF]IA[αMeF]VV[αMeK]GG-NH2 [SEQ ID NO 163] | 0.063 nM | 0.049 nM | 56 pM
